In patent US11008403 (dated 2021):
Several values for one entry are separate records, joined by “and”; a condition that tells them apart may be missing. Identical values can stand only once. Like-named read-outs stand apart in the source and are kept apart here.

How the values were obtained:
Assay in all cases: SPR
[1] = target: human TfR ECD (human)
[2] = target: T1, cyno TfR ECD (cynomolgus)
T1 chain: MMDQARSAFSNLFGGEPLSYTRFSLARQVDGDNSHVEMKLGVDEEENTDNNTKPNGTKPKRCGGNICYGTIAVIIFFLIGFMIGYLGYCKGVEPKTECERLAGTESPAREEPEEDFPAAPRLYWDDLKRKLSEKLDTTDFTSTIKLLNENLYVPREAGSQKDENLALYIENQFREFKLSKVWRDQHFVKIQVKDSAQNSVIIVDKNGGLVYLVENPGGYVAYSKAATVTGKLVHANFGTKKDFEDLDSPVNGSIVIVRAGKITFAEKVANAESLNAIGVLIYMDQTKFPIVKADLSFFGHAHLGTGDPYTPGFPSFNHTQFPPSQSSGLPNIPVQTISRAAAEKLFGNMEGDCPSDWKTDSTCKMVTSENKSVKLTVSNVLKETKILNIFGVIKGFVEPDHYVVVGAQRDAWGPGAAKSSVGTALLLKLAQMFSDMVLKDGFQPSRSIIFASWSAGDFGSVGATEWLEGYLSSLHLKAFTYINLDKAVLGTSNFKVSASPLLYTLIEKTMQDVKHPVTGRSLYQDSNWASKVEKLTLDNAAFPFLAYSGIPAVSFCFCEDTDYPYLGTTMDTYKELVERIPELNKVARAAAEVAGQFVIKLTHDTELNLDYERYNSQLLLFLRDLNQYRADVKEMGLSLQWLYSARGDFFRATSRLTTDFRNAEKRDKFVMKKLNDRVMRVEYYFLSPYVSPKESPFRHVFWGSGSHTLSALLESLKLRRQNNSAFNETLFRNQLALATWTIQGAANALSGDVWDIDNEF

[3] = target: human TfR ECD (human); remark: listed apart in the source
[4] = target: T1, cyno TfR ECD
[5] = target: human TfR ECD (human); remark: listed apart in the source
[6] = target: T1, cyno TfR ECD
[7] = target: T1, cyno TfR ECD
[8] = target: human TfR ECD (human); remark: listed apart in the source
[9] = target: human TfR ECD (human); remark: listed apart in the source

B1: Hu15G11.HC52A Fab (antiTfR.52A.Fab) (antibody, V domains shown)
VH: EVQLVQSGAEVKKPGASVKVSCKASGYTFTSYWMHWVRQAPGQRLEWIGEIAPTNGRTNYIEKFKSRATLTVDKSASTAYMELSSLRSEDTAVYYCARGTRAYHYWGQGTMVTVSS
VL: DIQMTQSPSSLSASVGDRVTITCRASDNLYSNLAWYQQKPGKSPKLLVYDATNLADGVPSRFSGSGSGTDYTLTISSLQPEDFATYYCQHFWGTPLTFGQGTKVEIK
With B1 the Kd [1] was 55 nM, the Kd [2] was 117 nM and the Kd [3] was 34.6 nM and 44.4 nM.

B2: Anti-TfR2/6266.hIgG1.LALAPG.YTE, TfR arm (antibody, V domains shown)
VH: EVQLVQSGAEVKKPGASVKVSCKASGYTFTSYWMHWVRQAPGQRLEWIGEINPTNGRTNYIEKFKSRATLTVDKSASTAYMELSSLRSEDTAVYYCARGTRAYHYWGQGTMVTVSS
VL: DIQMTQSPSSLSASVGDRVTITCRASDNLYSNLAWYQQKPGKSPKLLVYDATNLADGVPSRFSGSGSGTDYTLTISSLQPEDFATYYCQHFAGTPLTFGQGTKVEIKR
Work on B2 yielded a Kd [4] of 1650 nM.

B3: Hu15G11.v5 Fab (antibody, V domains shown)
VH: EVQLVQSGAEVKKPGASVKVSCKASGYTFTSYWMHWVRQAPGQRLEWIGEINPTNGRTNYIEKFKSRATLTVDKSASTAYMELSSLRSEDTAVYYCARGTRAYHYWGQGTMVTVSS
VL: DIQMTQSPSSLSASVGDRVTITCRASDNLYSNLAWYQQKPGKSPKLLVYDATNLADGVPSRFSGSGSGTDYTLTISSLQPEDFATYYCQHFWGTPLTFGQGTKVEIK
With B3 the Kd [5] was 4.7 nM and 8.91 nM, the Kd [6] was 28.2 nM and the Kd [2] was 28.2 nM. For the same binder, the Kd [7] was 15.6 nM, the Kd [8] was 7.03 nM and the Kd [3] was 7.03 nM.

B4: Anti-TfR1/6266.hIgG1.N297G, TfR arm (antibody, V domains shown)
VH: EVQLVQSGAEVKKPGASVKVSCKASGYTFTSYWMHWVRQAPGQRLEWIGEINPTNGRTNYIEKFKSRATLTVDKSASTAYMELSSLRSEDTAVYYCARGTRAYHYWGQGTMVTVSS
VL: DIQMTQSPSSLSASVGDRVTITCRASDNLYSNLAWYQQKPGKSPKLLVYDATNLADGVPSRFSGSGSGTDYTLTISSLQPEDFATYYCQHFWGTPLTFGQGTKVEIK
B4 gave a Kd [9] of 9 nM and a Kd [4] of 23.7 nM.

B5: Hu15G11.W92A bispecific, TfR arm (antibody, V domains shown)
VH: EVQLVQSGAEVKKPGASVKVSCKASGYTFTSYWMHWVRQAPGQRLEWIGEINPTNGRTNYIEKFKSRATLTVDKSASTAYMELSSLRSEDTAVYYCARGTRAYHYWGQGTMVTVSS
VL: DIQMTQSPSSLSASVGDRVTITCRASDNLYSNLAWYQQKPGKSPKLLVYDATNLADGVPSRFSGSGSGTDYTLTISSLQPEDFATYYCQHFAGTPLTFGQGTKVEIK
With B5 the Kd [6] was 622 nM and the Kd [8] was 295 nM.
